Target: mCherry-LHBs (HBV large envelope protein with mCherry at the N-terminus) (Hepatitis B virus) (UniProt P03138)
Assay: FRET or BRET

mCherry-LHBs (HBV large envelope protein with mCherry at the N-terminus) (from UniProt P03138 1-389) (natural protein)
FRET efficiency: 35%

— article PMC11933560
